# In publication PMC6589570 (Molecular Biology of the Cell, 2019):
# T1: cytosolic domain of SEC12 (PREB), his-tagged (UniProt Q9HCU5 1-388)
# T1 sequence (looked up): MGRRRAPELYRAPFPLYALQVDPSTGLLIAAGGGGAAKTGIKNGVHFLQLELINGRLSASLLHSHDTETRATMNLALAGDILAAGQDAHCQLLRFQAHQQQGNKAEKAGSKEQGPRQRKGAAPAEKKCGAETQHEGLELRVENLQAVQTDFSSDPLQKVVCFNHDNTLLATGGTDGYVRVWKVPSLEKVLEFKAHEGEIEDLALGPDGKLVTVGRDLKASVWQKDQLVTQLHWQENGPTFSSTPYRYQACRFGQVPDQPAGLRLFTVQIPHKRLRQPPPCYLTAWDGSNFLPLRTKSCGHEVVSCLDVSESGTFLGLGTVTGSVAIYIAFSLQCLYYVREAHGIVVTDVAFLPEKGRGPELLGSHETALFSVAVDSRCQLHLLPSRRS
# Target: T1, cytosolic domain of SEC12 (PREB), …
# Assay: liposome flotation
binder,measurement,value
"fatty-acid binding protein 5 (FABP5), rat (natural protein, UniProt P55053 1-135, looked up) MASLKDLEGKWRLVESHGFEDYMKELGVGLALRKMGAMAKPDCIITLDGNNLTVKTESTVKTTVFSCTLGEKFDETTADGRKTETVCTFTDGALVQHQKWEGKESTITRKLKDGKMVVECVMNNAICTRVYEKVQ",fold recruitment to liposomes with SEC12 against without SEC12,~3.5 fold
